In patent US20250026813A1:

Target: SARS-CoV-2 spike trimer protein (wild type), in the envelope of lentiviral pseudovirus particles (SARS-CoV-2) (UniProt P0DTC2)
Assay: cell-based or functional assay

4A8 (antibody)
Fold change relative to SAD S35 antibody: 5.44 fold
